The values below come from publication doi:10.1101/2023.02.09.527835 (bioRxiv, 2023).

This experiment deals with human complement C3a (human, UniProt P01024 672-748). Nature of the experiment: cryo-EM structure.
Sequence of human complement C3a (P01024 672-748): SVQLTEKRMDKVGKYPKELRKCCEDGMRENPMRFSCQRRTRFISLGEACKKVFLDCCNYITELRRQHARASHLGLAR

B1: human complement C3a receptor (C3aR), full-length, FLAG-M4(2-23)-C3aR construct for cryo-EM (receptor, UniProt P08173 2-23, looked up)
chain: ANFTPVNGSSGNQSVRLVTSSSMASFSAETNSTDLLSQPWNEPPVILSMVILSLTFLLGLPGNGLVLWVAGLKMQRTVNTIWFLHLTLADLLCCLSLPFSLAHLALQGQWPYGRFLCKLIPSIIVLNMFASVFLLTAISLDRCLVVFKPIWCQNHRNVGMACSICGCIWVVAFVMCIPVFVYREIFTTDNHNRCGYKFGLSSSLDYPDFYGDPLENRSLENIVQPPGEMNDRLDPSSFQTNDHPWTVPTVFQPQTFQRPSADSLPRGSARLTSQNLYSNVFKPADVVSPKIPSGFPIEDHETSPLDNSDAFLSTHLKLFPSASSNSFYESELPQGFQDYYNLGQFTDDDQVPTPLVAITITRLVVGFLLPSVIMIACYSFIVFRMQRGRFAKSQSKTFRVAVVVVAVFLVCWTPYHIFGVLSLLTDPETPLGKTLMSWDHVCIALASANSCFNPFLYALLGKDFRKKARQSIQGILEAAFSEELTRSTHCPSNNVISERNSTTV
modifications: alkylated with iodoacetamide
On to B1, for which the binding result was “binds”.
